Data set [1] concerns the target T1, GST-FUS (Homo sapiens, UniProt P35637 1-526). Put plainly: competition.
The target of data set [2] is T1, GST-FUS. As to the kind of experiment: EMSA. In general terms: Mobility shift assays separate free from complexed probe on a gel.
The target in data set [3] is His-FUS (UniProt P35637 1-526). As to the kind of experiment: single-molecule TIRF.
In data set [4] the target is T1, GST-FUS. As to the kind of experiment: EMSA. This is another data set of the same source.

T1 sequence (P35637 whole entry): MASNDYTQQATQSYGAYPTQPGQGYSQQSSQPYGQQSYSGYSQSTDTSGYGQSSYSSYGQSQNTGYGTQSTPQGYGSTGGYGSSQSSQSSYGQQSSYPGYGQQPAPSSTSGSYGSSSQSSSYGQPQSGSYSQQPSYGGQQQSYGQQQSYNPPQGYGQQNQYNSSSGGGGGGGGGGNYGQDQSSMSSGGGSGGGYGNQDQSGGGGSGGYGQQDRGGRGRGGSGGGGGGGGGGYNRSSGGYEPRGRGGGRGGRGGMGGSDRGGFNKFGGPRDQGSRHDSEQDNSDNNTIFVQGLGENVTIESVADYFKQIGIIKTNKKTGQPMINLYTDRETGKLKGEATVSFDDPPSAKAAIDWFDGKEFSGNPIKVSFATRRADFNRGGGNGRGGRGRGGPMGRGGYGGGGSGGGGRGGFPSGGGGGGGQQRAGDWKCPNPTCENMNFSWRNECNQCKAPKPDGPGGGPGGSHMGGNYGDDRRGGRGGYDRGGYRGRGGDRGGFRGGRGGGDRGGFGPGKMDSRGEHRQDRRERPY
Sequence of His-FUS (P35637 whole entry): as above

Consider UAAUACUGCCGGGUAAUGAUGGA (ssRNA) [miR-200c (untagged)], for which the binding result in data set [1] is “binds”.

Regarding UAAUACUGCCGGGUAAUGAUGGA (ssRNA) [miR-200c (Cy5)], the binding result in data set [2] and in data set [3] was “binds” throughout.

For UUGUAUUUUGAGCUAGUUUGGUGAC (ssRNA) [GGUG oligo], the binding result in data set [4] is “binds”.

For the origin of these results see article PMC5836505.
